Data reported in patent US20180258165A1 (CELL MEDICA SWITZERLAND, published 2018).

T1: mouse IL-1 beta (mouse, UniProt P10749 118-269)
T1 construct: Bought recombinant protein
T1 sequence (looked up): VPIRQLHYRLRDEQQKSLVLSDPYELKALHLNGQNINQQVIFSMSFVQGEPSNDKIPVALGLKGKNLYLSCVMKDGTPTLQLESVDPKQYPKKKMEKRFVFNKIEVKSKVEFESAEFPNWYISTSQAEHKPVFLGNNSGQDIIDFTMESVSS

T2: cynomolgus IL-1 beta (cynomolgus, UniProt P79182 117-268)
T2 construct: Bought recombinant protein; also called cymonolgus IL-1 beta
T2 sequence (looked up): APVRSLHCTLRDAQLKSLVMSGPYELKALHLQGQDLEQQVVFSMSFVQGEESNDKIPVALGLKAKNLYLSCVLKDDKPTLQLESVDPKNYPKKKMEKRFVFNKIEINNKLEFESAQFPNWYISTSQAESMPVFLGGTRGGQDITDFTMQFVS

T3: rhesus macaque IL-1 beta (rhesus macaque, UniProt P48090 117-269)
T3 construct: Bought recombinant protein
T3 sequence (looked up): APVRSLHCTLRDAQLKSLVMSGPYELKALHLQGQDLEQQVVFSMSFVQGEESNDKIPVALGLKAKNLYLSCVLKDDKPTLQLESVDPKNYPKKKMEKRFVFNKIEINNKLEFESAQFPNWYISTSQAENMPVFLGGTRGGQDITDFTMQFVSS


How the values were obtained:
[1] = target: T4, recombinant human IL-1 beta (human, UniProt P01584 117-269, biotinylated in the ELISA of Example 2 (R&D systems, cat. no. NFLB0), sites not stated; unlabelled elsewhere); experiment: cell-based or functional assay
mouse IL-1 beta = target: T1, mouse IL-1 beta; experiment: ELISA, IL-1 beta coated at 2 mcg/ml, DLX2295 at 0.1, 0.3 and 1.0 mcg/ml, Protein L-HRP
Protocol: (§1) Binding to the recombinantly expressed IL-1 beta proteins of the following species was investigated: cynomolgus (Sino Biological Inc., USA, cat. no. 90010-CNAE), rhesus macaque (R&D Systems, USA, cat. no. 1318-RL/CF) and mouse IL-1 beta (BioLegend, cat. no. 575102). […] Briefly, proteins were coated at a concentration of 2 mcg/ml over night at 4° C. on Maxisorp 96-well microplates in PBS pH 7.2. […] The ELISAs were developed with BM Blue POD substrate (Roche Applied Science) and the absorbance was measured at 450 nm.

cynomolgus IL-1 beta = target: T2, cynomolgus IL-1 beta; experiment: as above
Protocol: as §1

rhesus macaque IL-1 beta = target: T3, rhesus macaque IL-1 beta; experiment: as above
Protocol: as §1

[2] = target: T4, recombinant human IL-1 beta; experiment: ELISA, rhIL-1 beta coated, scFv 10 to 3'000 ng/ml, Protein L-HRP
Protocol: A scFv of irrelevant specificity was used as a control. rhIL-1 beta (Peprotech, cat. no. 200-01B) was coated to NUNC 96-well Maxisorp immunoplates. After blocking scFvs were titrated from 10 to 3′000 ng/ml. Bound scFvs were detected by Protein L-HRP (Sigma-Aldrich, cat. no. P3226), and the ELISA was developed using BM Blue POD substrate (Roche Applied Science, cat. no. 11484281001). For quantification purposes, the absorption was measured at 450 nm using VersaMax microplate reader (Molecular Devices).

| IC50 of IL-1 beta-induced IL-6 release from human dermal fibroblasts [1] | binding result (mouse IL-1 beta) | binding result (cynomolgus IL-1 beta) | binding result (rhesus macaque IL-1 beta) | binding result [2] | Binder |
| --- | --- | --- | --- | --- | --- |
| 2 to 5 pM | binds | binds | binds |  | DLX2295 (scFv, also called anti-IL-1 beta scFv DLX2295) scFv: DIQMTQSPSTLSASVGDRVTITCRASQDISNYLSWYQQKPGKAPKLLIYYTSKLHSGVPSRFSGSGSGAEFTLTISSLQPEDFATYFCLQGKMLPWTFGQGTKLEIKRGGGGSGGGGSGGGGSGGGGSEVQLVESGGGSVQPGGSLRLSCAFSGFSLSTSGMGVGWIRQAPGKGLEWVSHIWWDGDESYNPSLKGRFTISKDTSRNTVYLQMNSLRAEDTASYFCARNRYDPPWFVDWGQGTTVTVSS |
| ~8 pM |  |  |  |  | DLX2296 (scFv) scFv: DIQMTQSPSTLSASVGDRVTITCRASQDISNYLSWYQQKPGKAPKLLIYYTSKLHSGVPSRFSGSGSGAEFTLTISSLQPEDFATYFCLQGKMLPWTFGQGTKLEIKRGGGGSGGGGSGGGGSGGGGSEVQLVESGGGLVQPGGSLRLSCAFSGFSLSTSGMGVGWIRQAPGKGLEWVSHIWWDGDESYNPSLKGRFTISKDTSRNTVYLQMNSLRAEDTAVYFCARNRYDPPWFVDWGQGTLVTVSS |
| ~100 pM |  |  |  |  | DLX2260 (scFv) scFv: EIVMTQSPSTLSASVGDRVIITCRASQDISNYLSWYQQKPGKAPKLLIYYTSKLHSGVPSRFSGSGSGAEFTLTISSLQPDDFATYYCLQGKMLPWTFGQGTKLTVLGGGGGSGGGGSGGGGSGGGGSEVQLVESGGGLVQPGGSLRLSCTASGFSLSTSGMGVGWVRQAPGKGLEWVGHIWWDGDESYNPSLKSRFTISRDTSKNTVYLQMNSLRAEDTAVYYCARNRYDPPWFVDWGQGTLVTVSS |
|  |  |  |  | binds | DLX2332 (scFv, also called anti-IL-1 beta scFv DLX2332) scFv: EIVMTQSPSTLSASVGDRVIITCRASQDISNYLSWYQQKPGKAPKLLIYYTSKLHSGVPSRFSGSGSGAEFTLTISSLQPEDFATYFCLQGKMLPWTFGQGTKLTVLGGGGGSGGGGSGGGGSGGGGSEVQLVESGGGSVQPGGSLRLSCAASGFSLSTSGMGVGWVRQAPGKGLEWVGHIWWDGDESYNPSLKSRFTISRDTSKNTVYLQMNSLRAEDTASYFCARNRYDPPWFVDWGQGTTVTVSS |
